Measurements reported in IntAct's records for PubMed 24464040.

Tests used:
kap3_rat Prkar2b [1] = target: kap3_rat Prkar2b (UniProt P12369)
kap3_rat Prkar2b [2] = target: kap3_rat Prkar2b (UniProt P12369); remark: listed apart in the source

Chain of kap3_rat Prkar2b (P12369 whole entry): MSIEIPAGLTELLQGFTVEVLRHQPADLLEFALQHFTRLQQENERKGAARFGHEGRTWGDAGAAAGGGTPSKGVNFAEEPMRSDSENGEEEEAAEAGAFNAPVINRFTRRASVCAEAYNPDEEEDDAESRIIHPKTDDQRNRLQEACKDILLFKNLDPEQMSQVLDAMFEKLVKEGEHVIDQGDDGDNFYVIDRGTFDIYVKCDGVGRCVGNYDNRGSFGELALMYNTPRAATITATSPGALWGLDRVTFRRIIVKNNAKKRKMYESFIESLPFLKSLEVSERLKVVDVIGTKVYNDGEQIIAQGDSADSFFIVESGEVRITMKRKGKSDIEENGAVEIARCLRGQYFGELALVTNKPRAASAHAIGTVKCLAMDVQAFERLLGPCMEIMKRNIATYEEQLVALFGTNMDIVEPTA

| effect of a mutation on the interaction (kap3_rat Prkar2b [1]) | effect of a mutation on the interaction (kap3_rat Prkar2b [2]) | Substance |
| --- | --- | --- |
| increasing interaction | – | Leucine-rich repeat serine/threonine-protein kinase 2 (Homo sapiens), Q5S007 G2385R |
| – | decreasing interaction | Leucine-rich repeat serine/threonine-protein kinase 2 (Homo sapiens), Q5S007 R1441C |
